# Source: PMC10354078, “Conformational restriction shapes the inhibition of a multidrug efflux adaptor protein” (Nature Communications, 2023)
# T1: AcrB in SMALP (styrene maleic acid lipid particle) nanodiscs (E. coli, UniProt P31224 1-1049)
# T1 construct: AcrB, inner membrane RND transporter of the E. coli AcrAB-TolC pump; pET15b plasmid; embedded in native lipid SMALP nanodiscs; also called trimeric AcrB SMALPs; source: E. coli C43(DE3) ΔacrAB, extracted from membranes with 2.5% SMA 2000 into native nanodiscs, purified (nickel NTA)
# T1 sequence: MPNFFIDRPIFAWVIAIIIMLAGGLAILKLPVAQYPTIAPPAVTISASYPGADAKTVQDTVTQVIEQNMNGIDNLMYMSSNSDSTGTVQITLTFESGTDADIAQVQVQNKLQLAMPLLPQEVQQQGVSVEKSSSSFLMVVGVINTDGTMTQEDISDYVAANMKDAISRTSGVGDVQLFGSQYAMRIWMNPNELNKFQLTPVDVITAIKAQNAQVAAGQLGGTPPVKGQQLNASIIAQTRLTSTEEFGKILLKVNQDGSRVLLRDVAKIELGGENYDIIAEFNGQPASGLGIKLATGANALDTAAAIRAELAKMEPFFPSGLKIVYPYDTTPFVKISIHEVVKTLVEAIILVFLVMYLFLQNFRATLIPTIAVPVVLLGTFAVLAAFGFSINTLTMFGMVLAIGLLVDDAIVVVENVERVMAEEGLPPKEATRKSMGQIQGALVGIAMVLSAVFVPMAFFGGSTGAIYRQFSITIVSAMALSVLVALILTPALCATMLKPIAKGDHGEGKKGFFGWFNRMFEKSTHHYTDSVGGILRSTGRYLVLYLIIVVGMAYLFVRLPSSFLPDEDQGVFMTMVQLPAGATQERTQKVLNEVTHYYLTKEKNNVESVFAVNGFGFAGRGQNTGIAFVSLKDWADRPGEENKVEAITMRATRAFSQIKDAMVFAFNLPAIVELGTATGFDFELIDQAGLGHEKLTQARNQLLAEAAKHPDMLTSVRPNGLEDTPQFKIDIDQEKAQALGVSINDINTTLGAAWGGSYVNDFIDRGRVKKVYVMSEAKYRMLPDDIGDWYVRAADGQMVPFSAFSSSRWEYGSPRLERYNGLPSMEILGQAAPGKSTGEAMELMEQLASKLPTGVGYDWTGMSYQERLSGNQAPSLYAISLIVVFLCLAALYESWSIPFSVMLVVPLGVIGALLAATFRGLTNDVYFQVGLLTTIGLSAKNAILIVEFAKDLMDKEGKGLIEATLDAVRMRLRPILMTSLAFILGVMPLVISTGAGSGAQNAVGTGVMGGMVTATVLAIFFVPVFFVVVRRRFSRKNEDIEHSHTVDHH
# Assays:
# [1] = target: the molecule itself; assay: native MS; pH 6.0, 100 mM ammonium acetate; AcrA^L with 0.03% DDM (2x CMC); Synapt G2-Si or Q-Exactive UHMR
# [2] = target: the molecule itself; assay: native MS; pH 7.4, 100 mM ammonium acetate; AcrA^L with 0.03% DDM
# [3] = target: T1, AcrB in SMALP (styrene maleic acid …); assay: native gel or EMSA; SMA-PAGE (native PAGE for SMALPs): AcrA constructs mixed with AcrB in SMALP nanodiscs; Novex Tris-Glycine 4-20% gels, 25 mM Tris pH 8.8, 192 mM glycine, 150 V, 4 °C, Coomassie stain; conditions: both partners purified
Binder,stoichiometry N [1],stoichiometry N [2],stoichiometry N [3]
"AcrA^L (lipidated AcrA) (natural protein, lipidated at Cys25 (after cleavage of signal peptide 1-24), AcrA, periplasmic adaptor protein of E. coli; full length AcrA cloned from genomic DNA; signal peptide residues 1-24 is cleaved, the protein begins at lipidated Cys25; Cloned into pET28a with NcoI and XhoI; source: E. coli C43(DE3) ΔacrAB, solubilised from membranes with 1% DDM, purified (HiTrap, SEC) in 0.03% DDM) CDDKQAQQGGQQMPAVGVVTVKTEPLQITTELPGRTSAYRIAEVRPQVSGIILKRNFKEGSDIEAGVSLYQIDPATYQATYDSAKGDLAKAQAAANIAQLTVNRYQKLLGTQYISKQEYDQALADAQQANAAVTAAKAAVETARINLAYTKVTSPISGRIGKSNVTEGALVQNGQATALATVQQLDPIYVDVTQSSNDFLRLKQELANGTLKQENGKAKVSLITSDGIKFPQDGTLEFSDVTVDQTTGSITLRAIFPNPDHTLLPGMFVRARLEEGLNPNAILVPQQGVTRTPRGDATVLVVGADDKVETRPIVASQAIGDKWLVTEGLKAGDRVVISGLQKVRPGVQVKAQEVTADNNQQAASGAQPEQSKS",2,≤ 5,–
"AcrA^S (soluble AcrA lacking signal peptide and lipidation) (domain or fragment, AcrA of E. coli without signal peptide residues 1-24; Cys25 replaced by a starting methionine (Met25); not lipidated; pET28a construct; source: E. coli C43(DE3) ΔacrAB, cytosolic fraction, purified (HiTrap, SEC)) MDDKQAQQGGQQMPAVGVVTVKTEPLQITTELPGRTSAYRIAEVRPQVSGIILKRNFKEGSDIEAGVSLYQIDPATYQATYDSAKGDLAKAQAAANIAQLTVNRYQKLLGTQYISKQEYDQALADAQQANAAVTAAKAAVETARINLAYTKVTSPISGRIGKSNVTEGALVQNGQATALATVQQLDPIYVDVTQSSNDFLRLKQELANGTLKQENGKAKVSLITSDGIKFPQDGTLEFSDVTVDQTTGSITLRAIFPNPDHTLLPGMFVRARLEEGLNPNAILVPQQGVTRTPRGDATVLVVGADDKVETRPIVASQAIGDKWLVTEGLKAGDRVVISGLQKVRPGVQVKAQEVTADNNQQAASGAQPEQSKS",–,–,1
